Values belong to the binder of their own block, whether it stands above or below them.
Legend:
[1] = biological target: T1, PTPRD P249L variant extracellular domain (human, UniProt P23468 21-1265); assay: extracellular interaction screen: pentameric PTPRD variant ECD on ECD-Fc prey (FIG. 5L)
T1 construct: extracellular domain; also called IG3 mutant
T1 sequence (looked up): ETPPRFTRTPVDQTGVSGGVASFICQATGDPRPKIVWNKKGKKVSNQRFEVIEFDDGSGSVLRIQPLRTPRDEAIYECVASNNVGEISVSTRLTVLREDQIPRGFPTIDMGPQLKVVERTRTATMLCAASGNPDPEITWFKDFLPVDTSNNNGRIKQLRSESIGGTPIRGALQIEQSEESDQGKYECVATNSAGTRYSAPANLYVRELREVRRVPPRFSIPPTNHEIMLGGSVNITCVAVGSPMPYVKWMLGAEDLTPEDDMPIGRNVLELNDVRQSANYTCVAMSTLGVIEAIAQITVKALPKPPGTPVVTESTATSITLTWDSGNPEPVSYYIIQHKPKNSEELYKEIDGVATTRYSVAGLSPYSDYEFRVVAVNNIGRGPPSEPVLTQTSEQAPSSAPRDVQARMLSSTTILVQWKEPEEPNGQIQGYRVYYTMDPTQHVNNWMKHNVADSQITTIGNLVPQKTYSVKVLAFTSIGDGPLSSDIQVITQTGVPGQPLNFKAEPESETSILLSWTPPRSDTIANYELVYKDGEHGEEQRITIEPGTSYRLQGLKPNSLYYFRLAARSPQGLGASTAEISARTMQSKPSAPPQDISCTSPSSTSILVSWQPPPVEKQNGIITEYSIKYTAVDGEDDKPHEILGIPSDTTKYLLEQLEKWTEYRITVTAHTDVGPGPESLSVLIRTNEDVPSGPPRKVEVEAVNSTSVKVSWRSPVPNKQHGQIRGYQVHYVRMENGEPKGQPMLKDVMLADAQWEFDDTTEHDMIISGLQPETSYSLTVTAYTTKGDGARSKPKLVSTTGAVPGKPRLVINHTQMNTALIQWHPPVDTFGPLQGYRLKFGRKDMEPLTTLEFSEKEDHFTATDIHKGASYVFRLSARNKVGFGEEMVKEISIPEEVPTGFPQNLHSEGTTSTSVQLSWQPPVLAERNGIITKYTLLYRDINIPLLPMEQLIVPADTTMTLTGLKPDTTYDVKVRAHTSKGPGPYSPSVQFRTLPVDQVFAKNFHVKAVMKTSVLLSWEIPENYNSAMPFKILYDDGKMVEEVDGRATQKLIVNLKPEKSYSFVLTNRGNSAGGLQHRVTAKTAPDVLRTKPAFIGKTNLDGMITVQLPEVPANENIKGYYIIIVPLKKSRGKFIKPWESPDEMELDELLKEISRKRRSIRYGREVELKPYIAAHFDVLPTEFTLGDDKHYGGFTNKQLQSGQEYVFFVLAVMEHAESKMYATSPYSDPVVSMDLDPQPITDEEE

[2] = biological target: T2, PTPRD expressed on cells (human, UniProt P23468 21-1912); assay: cell surface interaction assay: streptavidin-tetramerized biotinylated ECD on transfected cells, immunofluorescence
T2 construct: whole, on cells; also called receptor-type tyrosine-protein phosphatase delta

[3] = biological target: T3, PTPRS expressed on cells (human, UniProt Q13332 30-1948); assay: as above
T3 construct: whole, on cells; also called receptor-type tyrosine-protein phosphatase S

[4] = biological target: T4, PTPRF expressed on cells (human, UniProt P10586 30-1907); assay: as above
T4 construct: whole, on cells; also called receptor-type tyrosine-protein phosphatase F

[5] = biological target: T5, PTPRZ1 expressed on cells (human, UniProt P23471 25-2315); assay: as above
T5 construct: whole, on cells
Text: FIG. 3H is a schematic showing the design of the cell surface interaction assay.

[6] = biological target: T2, PTPRD expressed on cells; assay: cell surface interaction assay: query ECD tetramerised with fluorescent streptavidin on transfected cells, immunofluorescence
[7] = biological target: T3, PTPRS expressed on cells; assay: as above

T3 sequence (Q13332 30-1948): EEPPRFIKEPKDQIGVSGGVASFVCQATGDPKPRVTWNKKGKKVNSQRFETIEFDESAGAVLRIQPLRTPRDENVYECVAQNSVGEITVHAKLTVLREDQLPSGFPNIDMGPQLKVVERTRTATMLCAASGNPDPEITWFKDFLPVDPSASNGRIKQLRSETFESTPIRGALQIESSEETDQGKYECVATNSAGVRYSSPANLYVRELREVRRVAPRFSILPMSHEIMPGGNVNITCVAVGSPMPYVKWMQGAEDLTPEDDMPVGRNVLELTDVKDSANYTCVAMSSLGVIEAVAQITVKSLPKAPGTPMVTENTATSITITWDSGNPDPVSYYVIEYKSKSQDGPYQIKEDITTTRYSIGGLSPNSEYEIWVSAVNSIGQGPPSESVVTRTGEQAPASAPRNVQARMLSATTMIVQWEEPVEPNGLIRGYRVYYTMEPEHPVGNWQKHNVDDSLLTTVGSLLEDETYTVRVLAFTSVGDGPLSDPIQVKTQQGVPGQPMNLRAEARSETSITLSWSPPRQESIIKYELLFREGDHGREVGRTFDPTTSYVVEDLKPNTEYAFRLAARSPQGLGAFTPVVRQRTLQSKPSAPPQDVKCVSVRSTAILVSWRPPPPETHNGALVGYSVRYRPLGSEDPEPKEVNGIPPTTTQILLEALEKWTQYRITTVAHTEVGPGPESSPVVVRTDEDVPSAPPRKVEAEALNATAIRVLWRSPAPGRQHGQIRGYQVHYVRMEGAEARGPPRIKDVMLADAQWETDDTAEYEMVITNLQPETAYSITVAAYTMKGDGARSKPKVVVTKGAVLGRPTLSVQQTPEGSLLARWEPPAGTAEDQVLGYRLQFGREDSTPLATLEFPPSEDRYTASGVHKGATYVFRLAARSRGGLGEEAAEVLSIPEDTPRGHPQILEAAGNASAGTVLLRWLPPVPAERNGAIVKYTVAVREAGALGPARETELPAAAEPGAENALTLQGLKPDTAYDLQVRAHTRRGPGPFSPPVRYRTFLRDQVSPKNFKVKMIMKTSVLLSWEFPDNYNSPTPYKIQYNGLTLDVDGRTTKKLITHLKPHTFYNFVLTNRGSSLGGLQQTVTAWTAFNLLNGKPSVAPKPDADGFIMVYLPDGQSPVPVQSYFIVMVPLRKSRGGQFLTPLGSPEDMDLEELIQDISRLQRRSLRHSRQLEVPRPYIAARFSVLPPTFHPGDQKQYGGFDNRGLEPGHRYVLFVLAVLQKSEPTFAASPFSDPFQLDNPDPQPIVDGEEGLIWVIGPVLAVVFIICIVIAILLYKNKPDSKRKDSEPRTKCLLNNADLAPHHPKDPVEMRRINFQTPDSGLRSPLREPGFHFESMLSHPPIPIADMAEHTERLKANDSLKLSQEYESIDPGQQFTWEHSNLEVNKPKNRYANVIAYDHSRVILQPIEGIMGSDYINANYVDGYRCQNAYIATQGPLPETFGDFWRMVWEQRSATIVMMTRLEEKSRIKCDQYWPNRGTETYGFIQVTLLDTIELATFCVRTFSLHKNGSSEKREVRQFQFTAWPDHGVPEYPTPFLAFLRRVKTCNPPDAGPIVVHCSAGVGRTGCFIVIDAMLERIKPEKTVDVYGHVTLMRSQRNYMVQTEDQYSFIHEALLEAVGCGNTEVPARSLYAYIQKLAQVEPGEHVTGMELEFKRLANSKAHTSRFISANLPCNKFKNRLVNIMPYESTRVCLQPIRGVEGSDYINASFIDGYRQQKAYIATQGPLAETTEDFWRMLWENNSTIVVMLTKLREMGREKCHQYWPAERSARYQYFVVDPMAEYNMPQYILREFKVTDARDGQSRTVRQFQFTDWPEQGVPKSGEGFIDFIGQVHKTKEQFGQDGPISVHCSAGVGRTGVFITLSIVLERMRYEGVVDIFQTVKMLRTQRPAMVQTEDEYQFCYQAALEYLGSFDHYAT
T5 sequence (P23471 25-2315): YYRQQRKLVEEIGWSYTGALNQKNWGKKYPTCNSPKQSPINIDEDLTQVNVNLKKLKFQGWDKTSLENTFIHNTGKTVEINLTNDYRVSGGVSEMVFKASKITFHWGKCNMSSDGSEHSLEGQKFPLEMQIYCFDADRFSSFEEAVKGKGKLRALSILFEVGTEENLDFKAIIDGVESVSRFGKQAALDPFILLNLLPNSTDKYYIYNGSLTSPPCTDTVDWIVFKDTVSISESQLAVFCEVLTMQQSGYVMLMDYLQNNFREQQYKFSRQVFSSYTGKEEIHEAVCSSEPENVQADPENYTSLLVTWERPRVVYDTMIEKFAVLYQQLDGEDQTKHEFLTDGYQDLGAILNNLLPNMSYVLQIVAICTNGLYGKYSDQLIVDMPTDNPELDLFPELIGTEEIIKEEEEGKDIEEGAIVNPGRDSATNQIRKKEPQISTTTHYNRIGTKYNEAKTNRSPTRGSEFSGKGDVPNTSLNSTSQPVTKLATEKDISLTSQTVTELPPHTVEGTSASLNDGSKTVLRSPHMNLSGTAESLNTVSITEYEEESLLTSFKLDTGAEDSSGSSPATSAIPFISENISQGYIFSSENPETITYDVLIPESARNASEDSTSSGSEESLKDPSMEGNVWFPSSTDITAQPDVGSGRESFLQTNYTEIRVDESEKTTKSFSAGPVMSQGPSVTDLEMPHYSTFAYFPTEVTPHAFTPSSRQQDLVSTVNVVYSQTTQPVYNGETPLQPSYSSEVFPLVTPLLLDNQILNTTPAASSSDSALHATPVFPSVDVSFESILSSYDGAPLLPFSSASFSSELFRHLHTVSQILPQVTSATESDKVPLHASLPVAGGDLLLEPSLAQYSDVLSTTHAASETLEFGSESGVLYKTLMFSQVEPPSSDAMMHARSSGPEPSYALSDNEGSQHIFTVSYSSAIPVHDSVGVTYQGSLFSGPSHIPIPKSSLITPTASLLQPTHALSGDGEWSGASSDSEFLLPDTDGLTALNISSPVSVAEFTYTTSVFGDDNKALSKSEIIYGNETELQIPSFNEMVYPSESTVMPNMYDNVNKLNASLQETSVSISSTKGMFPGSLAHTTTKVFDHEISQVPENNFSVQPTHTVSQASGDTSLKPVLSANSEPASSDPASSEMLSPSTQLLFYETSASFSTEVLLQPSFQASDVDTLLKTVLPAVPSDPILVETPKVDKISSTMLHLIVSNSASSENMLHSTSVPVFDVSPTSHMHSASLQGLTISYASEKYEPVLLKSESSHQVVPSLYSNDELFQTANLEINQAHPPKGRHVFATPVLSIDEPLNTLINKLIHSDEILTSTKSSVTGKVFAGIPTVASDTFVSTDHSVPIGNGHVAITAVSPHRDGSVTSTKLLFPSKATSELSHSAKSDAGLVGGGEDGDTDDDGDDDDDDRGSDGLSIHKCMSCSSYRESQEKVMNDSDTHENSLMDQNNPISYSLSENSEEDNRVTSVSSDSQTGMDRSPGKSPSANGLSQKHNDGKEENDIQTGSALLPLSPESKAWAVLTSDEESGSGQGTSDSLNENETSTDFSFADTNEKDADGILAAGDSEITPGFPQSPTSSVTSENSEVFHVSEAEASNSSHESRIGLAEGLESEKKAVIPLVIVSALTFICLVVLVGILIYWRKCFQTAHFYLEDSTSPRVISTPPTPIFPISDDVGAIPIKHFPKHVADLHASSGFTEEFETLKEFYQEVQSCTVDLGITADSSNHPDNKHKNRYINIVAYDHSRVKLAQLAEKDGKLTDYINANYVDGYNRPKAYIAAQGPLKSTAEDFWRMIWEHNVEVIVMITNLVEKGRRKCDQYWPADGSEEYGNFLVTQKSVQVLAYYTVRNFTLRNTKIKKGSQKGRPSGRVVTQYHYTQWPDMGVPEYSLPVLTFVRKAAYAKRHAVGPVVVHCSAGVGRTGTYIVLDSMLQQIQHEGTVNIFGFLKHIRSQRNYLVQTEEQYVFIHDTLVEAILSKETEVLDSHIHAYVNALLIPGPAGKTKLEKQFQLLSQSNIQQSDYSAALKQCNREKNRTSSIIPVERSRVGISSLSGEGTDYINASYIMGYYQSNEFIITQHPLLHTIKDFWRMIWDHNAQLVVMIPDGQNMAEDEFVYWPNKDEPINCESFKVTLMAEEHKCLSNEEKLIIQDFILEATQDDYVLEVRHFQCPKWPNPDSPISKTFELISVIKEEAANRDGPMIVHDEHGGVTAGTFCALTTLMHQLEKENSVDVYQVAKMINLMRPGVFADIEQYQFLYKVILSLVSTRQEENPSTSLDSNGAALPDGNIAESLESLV

- binding result [1]: no binding
B1: LRRC4B extracellular domain (receptor, human, UniProt Q9NT99 36-576, looked up)
chain: AGGGGVAVTSAAGGGSPPATSCPVACSCSNQASRVICTRRDLAEVPASIPVNTRYLNLQENGIQVIRTDTFKHLRHLEILQLSKNLVRKIEVGAFNGLPSLNTLELFDNRLTTVPTQAFEYLSKLRELWLRNNPIESIPSYAFNRVPSLRRLDLGELKRLEYISEAAFEGLVNLRYLNLGMCNLKDIPNLTALVRLEELELSGNRLDLIRPGSFQGLTSLRKLWLMHAQVATIERNAFDDLKSLEELNLSHNNLMSLPHDLFTPLHRLERVHLNHNPWHCNCDVLWLSWWLKETVPSNTTCCARCHAPAGLKGRYIGELDQSHFTCYAPVIVEPPTDLNVTEGMAAELKCRTGTSMTSVNWLTPNGTLMTHGSYRVRISVLHDGTLNFTNVTVQDTGQYTCMVTNSAGNTTASATLNVSAVDPVAAGGTGSGGGGPGGSGGVGGGSGGYTYFTTVTVETLETQPGEEALQPRGTEKEPPGPTTDGVWGGGRPGDAAGPASSSTTAPAPRSSRPTEKAFTVPITDVTENALKDLDDVMKTTK
notes: extracellular domain; ECD-Fc prey; also called NGL-3; netrin-G ligand-3

- binding result [2]: binds
- binding result [3]: binds
- binding result [4]: binds
B2: LRFN5 extracellular domain (receptor, human, UniProt Q96NI6 18-529, looked up)
chain: QICPKRCVCQILSPNLATLCAKKGLLFVPPNIDRRTVELRLADNFVTNIKRKDFANMTSLVDLTLSRNTISFITPHAFADLRNLRALHLNSNRLTKITNDMFSGLSNLHHLILNNNQLTLISSTAFDDVFALEELDLSYNNLETIPWDAVEKMVSLHTLSLDHNMIDNIPKGTFSHLHKMTRLDVTSNKLQKLPPDPLFQRAQVLATSGIISPSTFALSFGGNPLHCNCELLWLRRLSREDDLETCASPPLLTGRYFWSIPEEEFLCEPPLITRHTHEMRVLEGQRATLRCKARGDPEPAIHWISPEGKLISNATRSLVYDNGTLDILITTVKDTGAFTCIASNPAGEATQIVDLHIIKLPHLLNSTNHIHEPDPGSSDISTSTKSGSNTSSSNGDTKLSQDKIVVAEATSSTALLKFNFQRNIPGIRMFQIQYNGTYDDTLVYRMIPPTSKTFLVNNLAAGTMYDLCVLAIYDDGITSLTATRVVGCIQFTTEQDYVRCHFMQSQFLGGTM
notes: extracellular domain; Streptavidin tetramer in cell assay; ECD-Fc prey in the variant screen; also called LFRN5

- binding result [5]: binds
- binding result [6]: no binding
- binding result [7]: no binding
B3: CNTN1 extracellular domain (receptor, human, UniProt Q12860 21-993, looked up)
chain: EFTWYRRYGHGVSEEDKGFGPIFEEQPINTIYPEESLEGKVSLNCRARASPFPVYKWRMNNGDVDLTSDRYSMVGGNLVINNPDKQKDAGIYYCLASNNYGMVRSTEATLSFGYLDPFPPEERPEVRVKEGKGMVLLCDPPYHFPDDLSYRWLLNEFPVFITMDKRRFVSQTNGNLYIANVEASDKGNYSCFVSSPSITKSVFSKFIPLIPIPERTTKPYPADIVVQFKDVYALMGQNVTLECFALGNPVPDIRWRKVLEPMPSTAEISTSGAVLKIFNIQLEDEGIYECEAENIRGKDKHQARIYVQAFPEWVEHINDTEVDIGSDLYWPCVATGKPIPTIRWLKNGYAYHKGELRLYDVTFENAGMYQCIAENTYGAIYANAELKILALAPTFEMNPMKKKILAAKGGRVIIECKPKAAPKPKFSWSKGTEWLVNSSRILIWEDGSLEINNITRNDGGIYTCFAENNRGKANSTGTLVITDPTRIILAPINADITVGENATMQCAASFDPALDLTFVWSFNGYVIDFNKENIHYQRNFMLDSNGELLIRNAQLKHAGRYTCTAQTIVDNSSASADLVVRGPPGPPGGLRIEDIRATSVALTWSRGSDNHSPISKYTIQTKTILSDDWKDAKTDPPIIEGNMEAARAVDLIPWMEYEFRVVATNTLGRGEPSIPSNRIKTDGAAPNVAPSDVGGGGGRNRELTITWAPLSREYHYGNNFGYIVAFKPFDGEEWKKVTVTNPDTGRYVHKDETMSPSTAFQVKVKAFNNKGDGPYSLVAVINSAQDAPSEAPTEVGVKVLSSSEISVHWEHVLEKIVESYQIRYWAAHDKEEAANRVQVTSQEYSARLENLLPDTQYFIEVGACNSAGCGPPSDMIEAFTKKAPPSQPPRIISSVRSGSRYIITWDHVVALSNESTVTGYKVLYRPDGQHDGKLYSTHKHSIEVPIPRDGEYVVEVRAHSDGGDGVVSQVKIS
notes: extracellular domain; Streptavidin tetramer in cell assays; ECD-Fc in SPR; also called contactin 1

Reference: patent US20220119490A1 (Genentech, published 2022)
